Patent US20230091510A1, “ANTIBODY DRUG CONJUGATES HAVING LINKERS COMPRISING HYDROPHILIC GROUPS” (priority 2019, published 2023)
Where a SMILES comes first, the peptide text is derived from it. [ ]: non-standard residue; d: D form. The star is where a group is joined. Dolaproine = CO[C@@H]([C@@H]1CCCN1)[C@@H](C)C(=O)O; Dil = CC[C@H](C)[C@H](NC)[C@@H](CC(=O)O)OC; X1 = C[C@@H](N*)[C@@H](O)c1ccccc1; NMeV = CN[C@H](C(=O)O)C(C)C

Experiments:
HCC70 cells = assay: CellTiter-Glo inhibition of cell proliferation and survival, HCC70; format: cell-based, human; conditions: HCC-70 cell line
Protocol: (§1) The antibody drug conjugates were tested against four endogenous cancer cell lines and one isogenic cell line engineered to overexpress the target of interest. FaDu (ATCC No. HTB-43 cultured in Eagle's Minimum Essential Medium+10% FBS), HCC70 (ATCC No. CRL-2315 cultured in RPMI-1640+10% FBS), HCC1954 (ATCC No. CRL-2338 cultured in RPMI-1640+10% FBS) and HT-29 (ATCC No. HTB-38 cultured in McCoy's 5a Medium Modified+10% FBS). The HT-29 cell line was transfected to generate a stable HT-29 cell line expressing the exogenous protein of interest, P-cadherin, HT-29 PCAD+(cultured in McCoy's 5a Medium Modified+10% FBS).
(§2) The ability of the P-cadherin linker variant antibody drug conjugates to inhibit cell proliferation and survival was assessed using the Promega CellTiter-Glo® proliferation assay.
(§3) The cell lines were cultured in media that is optimal for their growth at 5% CO2, 37° C. in a tissue culture incubator. […] Cell viability and cell density were determined using a cell counter (Vi-Cell XR Cell Viability Analyzer, Beckman Coulter). […] Plates were incubated at 5% CO2, 37° C. for 5 days in a tissue culture incubator, after which cell viability was assessed through the addition of 25 μL of CellTiter Glo® (Promega, cat #G7573), a reagent which lyses cells and measures total adenosine triphosphate (ATP) content. […]

HT-29 cells = assay: CellTiter-Glo inhibition of cell proliferation and survival, HT-29; format: cell-based, human; conditions: HT-29 cell line
Protocol: as §1, §2, §3

HCC1954 cells = assay: CellTiter-Glo inhibition of cell proliferation and survival, HCC1954; format: cell-based, human; conditions: HCC-1954 cell line
Protocol: as §1, §2, §3

FaDu cells = assay: CellTiter-Glo inhibition of cell proliferation and survival, FaDu; format: cell-based, human; conditions: FaDu cell line
Protocol: as §1, §2, §3

[1] = target: P-cadherin, endogenous, on HCC70 human triple negative breast cancer cells (human, UniProt P22223 108-829); assay: cell-based or functional assay
[2] = target: P-cadherin, exogenous, stably expressed on HT-29 PCAD+ cells (UniProt P22223 108-829, limits assumed); assay: cell-based or functional assay
[3] = value from an individual representative assay

Sequence of P-cadherin, endogenous, on HCC70 human triple negative breast cancer cells (P22223 108-829): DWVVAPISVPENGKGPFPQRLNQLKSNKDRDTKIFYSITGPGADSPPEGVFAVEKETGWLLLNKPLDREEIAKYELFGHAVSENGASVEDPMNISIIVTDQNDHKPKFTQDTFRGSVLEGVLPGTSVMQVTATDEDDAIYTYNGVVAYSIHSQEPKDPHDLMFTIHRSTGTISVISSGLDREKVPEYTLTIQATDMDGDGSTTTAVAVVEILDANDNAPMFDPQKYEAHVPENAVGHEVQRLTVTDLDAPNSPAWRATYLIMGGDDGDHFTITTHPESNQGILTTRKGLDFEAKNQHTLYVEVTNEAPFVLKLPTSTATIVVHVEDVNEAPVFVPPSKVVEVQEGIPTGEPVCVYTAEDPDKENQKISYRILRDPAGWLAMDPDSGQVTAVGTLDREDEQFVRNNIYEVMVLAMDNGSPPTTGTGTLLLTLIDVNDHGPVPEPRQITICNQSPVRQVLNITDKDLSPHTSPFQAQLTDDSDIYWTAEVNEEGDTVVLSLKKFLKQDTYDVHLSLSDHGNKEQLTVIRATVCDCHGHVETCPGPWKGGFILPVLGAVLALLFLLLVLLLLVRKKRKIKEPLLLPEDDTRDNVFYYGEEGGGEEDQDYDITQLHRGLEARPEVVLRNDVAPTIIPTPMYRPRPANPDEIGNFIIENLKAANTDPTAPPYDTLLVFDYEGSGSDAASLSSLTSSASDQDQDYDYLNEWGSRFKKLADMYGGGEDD
Sequence of P-cadherin, exogenous, stably expressed on HT-29 PCAD+ cells (P22223 108-829 limits assumed): as the sequence (P22223 108-829) above

| Molecule | Amax (HCC70 cells) | IC50 (HCC70 cells; [3]) [nM] | Amax (HT-29 cells) | IC50 (HT-29 cells; [3]) [nM] | Amax (HCC1954 cells) | IC50 (HCC1954 cells; [3]) [nM] | Amax (FaDu cells) | IC50 (FaDu cells; [3]) [nM] | Amax, inhibition of cell proliferation and survival (CellTiter-Glo, 5 days), HCC70 cells [1] | IC50 (nM), inhibition of cell proliferation and survival (CellTiter-Glo, 5 days), HCC70 cells [1] [nM] | Amax, inhibition of cell proliferation and survival (CellTiter-Glo, 5 days), HT-29 PCAD+ cells [2] | IC50 (nM), inhibition of cell proliferation and survival (CellTiter-Glo, 5 days), HT-29 PCAD+ cells [2] [nM] |
| --- | --- | --- | --- | --- | --- | --- | --- | --- | --- | --- | --- | --- |
| CC[C@H](C)[C@@H]([C@@H](CC(=O)N1CCC[C@H]1[C@H](OC)[C@@H](C)C(=O)N[C@H](C)[C@@H](O)c1ccccc1)OC)N(C)C(=O)[C@@H](NC(=O)[C@@H](NC)C(C)C)C(C)C [Free MMAE, monomethyl auristatin E, reference compound] (H-[NMeV]V[Dil][Dolaproine]-X1) | 49.22 | 0.022 | 102.30 | 0.012 | 65.26 | 0.056 | 108.80 | 0.032 |  |  |  |  |
| P-Cad mab2-L1-P1 (antibody, V domains shown, maleimide linker-drug L1-P1 on engineered Cys residues of the constant regions (positions not stated), DAR 3.8) VH: QVQLQQSGPGLVKPSQTLSLTCAISGDSVSSQSAAWNWIRQSPSRGLEWLGRIYYRSKWYNDYALSVKSRITINPDTSKNQFSLQLNSVTPEDTAVYYCARGEGYGREGFAIWGQGTLVTVSS VL: DIQMTQSPSSLSASVGDRVTITCRASQTISNTLAWYQQKPGKAPKLLIYAASNLQSGVPSRFSGSGSGTDFTLTISSLQPEDFATYYCQQYLSWFTFGQGTKVEIK |  |  |  |  |  |  |  |  | 65.1 | 0.237 | 90 | 0.077 |
| P-Cad mab2-L3-P1 (antibody, V domains shown, maleimide linker-drug L3-P1 on engineered Cys residues of the constant regions (positions not stated), DAR 4.0) VH: QVQLQQSGPGLVKPSQTLSLTCAISGDSVSSQSAAWNWIRQSPSRGLEWLGRIYYRSKWYNDYALSVKSRITINPDTSKNQFSLQLNSVTPEDTAVYYCARGEGYGREGFAIWGQGTLVTVSS VL: DIQMTQSPSSLSASVGDRVTITCRASQTISNTLAWYQQKPGKAPKLLIYAASNLQSGVPSRFSGSGSGTDFTLTISSLQPEDFATYYCQQYLSWFTFGQGTKVEIK |  |  |  |  |  |  |  |  | 105 | 1.35 | 86.8 | 0.083 |
| P-Cad mab2-L4-P1 (antibody, V domains shown, maleimide linker-drug L4-P1 on engineered Cys residues of the constant regions (positions not stated), DAR 3.9) VH: QVQLQQSGPGLVKPSQTLSLTCAISGDSVSSQSAAWNWIRQSPSRGLEWLGRIYYRSKWYNDYALSVKSRITINPDTSKNQFSLQLNSVTPEDTAVYYCARGEGYGREGFAIWGQGTLVTVSS VL: DIQMTQSPSSLSASVGDRVTITCRASQTISNTLAWYQQKPGKAPKLLIYAASNLQSGVPSRFSGSGSGTDFTLTISSLQPEDFATYYCQQYLSWFTFGQGTKVEIK |  |  |  |  |  |  |  |  | 57.2 | 0.467 | 86.2 | 0.117 |
| P-Cad mab2-L5-P1 (antibody, V domains shown, maleimide linker-drug L5-P1 on engineered Cys residues of the constant regions (positions not stated), DAR 3.7) VH: QVQLQQSGPGLVKPSQTLSLTCAISGDSVSSQSAAWNWIRQSPSRGLEWLGRIYYRSKWYNDYALSVKSRITINPDTSKNQFSLQLNSVTPEDTAVYYCARGEGYGREGFAIWGQGTLVTVSS VL: DIQMTQSPSSLSASVGDRVTITCRASQTISNTLAWYQQKPGKAPKLLIYAASNLQSGVPSRFSGSGSGTDFTLTISSLQPEDFATYYCQQYLSWFTFGQGTKVEIK |  |  |  |  |  |  |  |  | 65.9 | 0.32 | 91.6 | 0.075 |
| P-Cad mab2-L2-P1 (antibody, V domains shown, maleimide linker-drug L2-P1 on engineered Cys residues of the constant regions (positions not stated), DAR 3.9) VH: QVQLQQSGPGLVKPSQTLSLTCAISGDSVSSQSAAWNWIRQSPSRGLEWLGRIYYRSKWYNDYALSVKSRITINPDTSKNQFSLQLNSVTPEDTAVYYCARGEGYGREGFAIWGQGTLVTVSS VL: DIQMTQSPSSLSASVGDRVTITCRASQTISNTLAWYQQKPGKAPKLLIYAASNLQSGVPSRFSGSGSGTDFTLTISSLQPEDFATYYCQQYLSWFTFGQGTKVEIK |  |  |  |  |  |  |  |  | 51 | 0.336 | 83.9 | 0.098 |
| PCAD-mab2-L7-P2 (antibody, V domains shown, linker-drug L7-P2 (structure and conjugation not described in the filing)) VH: QVQLQQSGPGLVKPSQTLSLTCAISGDSVSSQSAAWNWIRQSPSRGLEWLGRIYYRSKWYNDYALSVKSRITINPDTSKNQFSLQLNSVTPEDTAVYYCARGEGYGREGFAIWGQGTLVTVSS VL: DIQMTQSPSSLSASVGDRVTITCRASQTISNTLAWYQQKPGKAPKLLIYAASNLQSGVPSRFSGSGSGTDFTLTISSLQPEDFATYYCQQYLSWFTFGQGTKVEIK |  |  |  |  |  |  |  |  | 171 | 0.004 |  |  |
| P-Cad mab2-L6-P1 (antibody, V domains shown, maleimide linker-drug L6-P1 on engineered Cys residues of the constant regions (positions not stated), DAR 3.8) VH: QVQLQQSGPGLVKPSQTLSLTCAISGDSVSSQSAAWNWIRQSPSRGLEWLGRIYYRSKWYNDYALSVKSRITINPDTSKNQFSLQLNSVTPEDTAVYYCARGEGYGREGFAIWGQGTLVTVSS VL: DIQMTQSPSSLSASVGDRVTITCRASQTISNTLAWYQQKPGKAPKLLIYAASNLQSGVPSRFSGSGSGTDFTLTISSLQPEDFATYYCQQYLSWFTFGQGTKVEIK |  |  |  |  |  |  |  |  | 80.2 | 0.209 | 102 | 0.069 |
